Results published in PMC5627055, “Interactions of the Bacillus subtilis DnaE polymerase with replisomal proteins modulate its activity and fidelity” (Open Biology, 2017).
Blank lines part the entries; values can stand above or below the binder they belong to.

Key:
PolCexo- [1] = target: T1, PolCexo- (Bacillus subtilis, UniProt P13267 1-1437, D425A;E427A); test: EMSA; 10 mM Mg2+; 1 uM PolCexo-; no detectable stable complex; EMSA: 20 mM HEPES pH 7.5, 50 mM NaCl, 10 mM MgCl2, 1 mM DTT, 0.66 nM radiolabelled substrate, 37 C 5 min; 5% native PAGE; conditions: protein: recombinant; tags: N-terminal His tag removed by TEV; 14 bp duplex; 3'-terminal primer mismatch; 15 nt 5' overhang of template
DnaE [2] = target: T2, DnaE (Bacillus subtilis, UniProt O34623 1-1115); test: EMSA; 10 mM Mg2+; 1 uM DnaE; EMSA: 20 mM HEPES pH 7.5, 50 mM NaCl, 10 mM MgCl2, 1 mM DTT, 0.66 nM radiolabelled substrate, 37 C 5 min; 5% native PAGE; conditions: protein: recombinant; tags: N-terminal His6-MBP removed by TEV; 14 bp duplex; 3'-terminal primer mismatch; 15 nt 5' overhang of template
DnaE;PolC = DnaE;PolC (Bacillus subtilis;Bacillus subtilis, UniProt O34623;P13267 1-1115;1-1437, |); test: EMSA; 10 mM Mg2+; 1 uM DnaE, 25-1000 nM PolC; ternary complex, then DNA digested by PolC; EMSA: 20 mM HEPES pH 7.5, 50 mM NaCl, 10 mM MgCl2, 1 mM DTT, 0.66 nM radiolabelled substrate, 37 C 5 min; 5% native PAGE; conditions: protein: recombinant;recombinant; tags: N-terminal His6-MBP removed by TEV;N-terminal His tag removed by TEV; copies: 1;1; 14 bp duplex; 3'-terminal primer mismatch; 15 nt 5' overhang of template
DnaE;PolCexo- = DnaE;PolCexo- (Bacillus subtilis;Bacillus subtilis, UniProt O34623;P13267 1-1115;1-1437, |D425A;E427A); test: EMSA; 10 mM Mg2+; 1 uM DnaE, 25-1000 nM PolCexo-; ternary complex; EMSA: 20 mM HEPES pH 7.5, 50 mM NaCl, 10 mM MgCl2, 1 mM DTT, 0.66 nM radiolabelled substrate, 37 C 5 min; 5% native PAGE; conditions: protein: recombinant;recombinant; tags: N-terminal His6-MBP removed by TEV;N-terminal His tag removed by TEV; copies: 1;1; 14 bp duplex; 3'-terminal primer mismatch; 15 nt 5' overhang of template
[3] = target: T3, Bacillus subtilis PolC_(exo-) (D425A/E427A) (B. subtilis, UniProt P13267 1-1437, D425A | E427A); test: native gel or EMSA; DnaE (1 µM) pre-incubated with radiolabelled primed 3'-mismatch (A:G) DNA substrate (0.66 nM) at 37°C for 5 min, then increasing PolC or PolC_(exo-) (25-1000 nM) and 5 min more at 37°C; 20 mM HEPES pH 7.5, 50 mM NaCl, 10 mM MgCl2, 1 mM DTT; 5% native polyacrylamide gel; ternary template-DnaE-PolC complex read from the shifted DNA; conditions: both partners purified
T3 construct: p2BT-NT-HT-PolC_(exo-); source: E. coli BLR(DE3), purified (HisTrap, TEV cleavage, HisTrap flow through, HiTrap Q, Superdex-200); not shown: His-tag, N-terminal, cleaved

[4] = target: T4, Bacillus subtilis PolC polymerase, wild type (B. subtilis, UniProt P13267 1-1437); test: as above; conditions: both partners purified
T4 construct: PolC, DNA polymerase of the C family with internal 3'>5' exonuclease domain, Bacillus subtilis; polC gene cloned into p2BT (p2BT-NT-HT-PolC); The N-terminal His-tag was removed with TEV protease during purification; also called wild-type PolC; source: E. coli BLR(DE3), purified (HisTrap, TEV cleavage, HisTrap flow through, HiTrap Q, Superdex-200); not shown: His-tag, N-terminal, cleaved

DnaE [5] = target: T2, DnaE; test: EMSA; 10 mM Mg2+; multiple shifted bands; EMSA: 20 mM HEPES pH 7.5, 50 mM NaCl, 10 mM MgCl2, 1 mM DTT, 0.66 nM radiolabelled substrate, 37 C 5 min; 5% native PAGE; conditions: protein: recombinant; tags: N-terminal His6-MBP removed by TEV; label: radiolabel at 5' end; single strand
PolCexo- [6] = target: T1, PolCexo-; test: EMSA; 10 mM Mg2+; no detectable stable complex; EMSA: 20 mM HEPES pH 7.5, 50 mM NaCl, 10 mM MgCl2, 1 mM DTT, 0.66 nM radiolabelled substrate, 37 C 5 min; 5% native PAGE; conditions: protein: recombinant; tags: N-terminal His tag removed by TEV; 15 bp duplex; 15 nt 5' overhang of template (primer-template)
DnaE [7] = target: T2, DnaE; test: EMSA; 10 mM Mg2+; EMSA: 20 mM HEPES pH 7.5, 50 mM NaCl, 10 mM MgCl2, 1 mM DTT, 0.66 nM radiolabelled substrate, 37 C 5 min; 5% native PAGE; conditions: protein: recombinant; tags: N-terminal His6-MBP removed by TEV; 15 bp duplex; 15 nt 5' overhang of template (primer-template)

B1: 3'-mismatch (A:G) DNA-primed 30mer template (dsDNA)
DNA 1: ACACACACACACACACACACACACCCCCTT
DNA 2: AAGGGGGTGTGTGTA
binding result (PolCexo- [1]): no binding
binding result (DnaE [2]): binds
binding result (DnaE;PolC): binds
binding signal (DnaE;PolCexo-): ~4 fold shifted substrate vs DnaE alone (up to)

binding result [3]: binds
binding result [4]: binds
B2: Bacillus subtilis DnaE polymerase, wild type (enzyme, B. subtilis, UniProt O34623 1-1115, looked up)
chain: MSFVHLQVHSGYSLLNSAAAVEELVSEADRLGYASLALTDDHVMYGAIQFYKACKARGINPIIGLTASVFTDDSELEAYPLVLLAKSNTGYQNLLKISSVLQSKSKGGLKPKWLHSYREGIIAITPGEKGYIETLLEGGLFEQAAQASLEFQSIFGKGAFYFSYQPFKGNQVLSEQILKLSEETGIPVTATGDVHYIRKEDKAAYRCLKAIKAGEKLTDAPAEDLPDLDLKPLEEMQNIYREHPEALQASVEIAEQCRVDVSLGQTRLPSFPTPDGTSADDYLTDICMEGLRSRFGKPDERYLRRLQYELDVIKRMKFSDYFLIVWDFMKHAHEKGIVTGPGRGSAAGSLVAYVLYITDVDPIKHHLLFERFLNPERVSMPDIDIDFPDTRRDEVIQYVQQKYGAMHVAQIITFGTLAAKAALRDVGRVFGVSPKEADQLAKLIPSRPGMTLDEARQQSPQLDKRLRESSLLQQVYSIARKIEGLPRHASTHAAGVVLSEEPLTDVVPLQEGHEGIYLTQYAMDHLEDLGLLKMDFLGLRNLTLIESITSMIEKEENIKIDLSSISYSDDKTFSLLSKGDTTGIFQLESAGMRSVLKRLKPSGLEDIVAVNALYRPGPMENIPLFIDRKHGRAPVHYPHEDLRSILEDTYGVIVYQEQIMMIASRMAGFSLGEADLLRRAVSKKKKEILDRERSHFVEGCLKKEYSVDTANEVYDLIVKFANYGFNRSHAVAYSMIGCQLAYLKAHYPLYFMCGLLTSVIGNEDKISQYLYEAKGSGIRILPPSVNKSSFPFTVENGSVRYSLRAIKSVGVSAVKDIYKARKEKPFEDLFDFCFRVPSKSVNRKMLEALIFSGAMDEFGQNRATLLASIDVALEHAELFAADDDQMGLFLDESFSIKPKYVETEELPLVDLLAFEKETLGIYFSNHPLSAFRKQLTAQGAVSILQAQRAVKRQLSLGVLLSKIKTIRTKTGQNMAFLTLSDETGEMEAVVFPEQFRQLSPVLREGALLFTAGKCEVRQDKIQFIMSRAELLEDMDAEKAPSVYIKIESSQHSQEILAKIKRILLEHKGETGVYLYYERQKQTIKLPESFHINADHQVLYRLKELLGQKNVVLKQW
notes: DnaE, DNA polymerase of the C family (DnaE3 group), Bacillus subtilis; dnaE gene cloned into p2CT (p2CT-NT-HT-DnaE); also called DnaEWT; source: E. coli BL21 (DE3) Rosetta, purified (HisTrap, TEV cleavage, HisTrap flow through, ammonium sulfate, HiTrap Q); not shown: His6, N-terminal, cleaved

B3: ssDNA 30mer (ssDNA)
DNA: B1 DNA 1
binding result (DnaE [5]): binds

B4: DNA-primed 30mer template (dsDNA)
DNA 1: B1 DNA 1
DNA 2: AAGGGGGTGTGTGTG
binding result (PolCexo- [6]): no binding
binding result (DnaE [7]): binds
